Experiment [1] has as its target SARS-CoV-2 Omicron JD.1.1 spike (S-6P) (SARS-CoV-2) (UniProt P0DTC2). Briefly: cryo-EM structure.
The target in experiment [2] is SARS-CoV-2 Omicron LP.8.1 spike (S-6P) (SARS-CoV-2) (UniProt P0DTC2). Briefly: cryo-EM structure.

As usually defined, the stoichiometry N is a count of units in the complex or per binding partner. In turn, “SARS-CoV-2 Omicron JD.1.1 spike (S-6P) (from UniProt P0DTC2 14-1211) (natural protein)” registered a stoichiometry N in experiment [1] of 3.

Substance “SARS-CoV-2 Omicron LP.8.1 spike (S-6P) (from UniProt P0DTC2 14-1211) (natural protein)” registered a stoichiometry N in experiment [2] of 3.

Values taken from paper doi:10.64898/2025.12.10.693372.
